This is an account of results in publication PMC7046727.

The target of test [1] is sLif_(Y99A), variant of soluble P. aeruginosa Lif with Y99 mutated to alanine (Pseudomonas aeruginosa). Briefly: other fluorescence titration; sLif / sLif_(Y99A) labelled with BDP FL (1.2 nM label, total about 24 nM) with 0-50 uM LipA overnight at 4 °C in 10 mM glycine buffer pH 9; steady-state anisotropy and average translational diffusion time (FCS) on a confocal microscope (sLif_(Y99A): diffusion time only); 1:1 binding model; apparent KD.

For test [2], the target named is sLif, soluble form of Pseudomonas aeruginosa lipase-specific foldase Lif that lacks the transmembrane domain (TMD) (Pseudomonas aeruginosa). The description is as above.

For the substance “lipase LipA of Pseudomonas aeruginosa, pre-active form refolded in vitro (enzyme)”, the results for the Kd in test [1] and in test [2] were 77 nM and 29 nM, respectively.
